Assay results from patent US20210206855A1 (ADAGENE, published 2021).
Like-named read-outs stand apart in the source and are kept apart here.

How the values were obtained:
[1] = target: T1, full-length human CTLA4 on the cell surface (HEK293F transfectants); also activated human T cells, … (human, UniProt P16410 36-223); experiment: flow cytometry on HEK293F cells transiently expressing full-length human CTLA4; Alexa Fluor 647 anti-human Fc
T1 construct: whole, on cells; used for every assay with human CTLA4 on cells; also called HEK293F/hCTLA-4; HEK293F/hCTLA4
T1 sequence (looked up): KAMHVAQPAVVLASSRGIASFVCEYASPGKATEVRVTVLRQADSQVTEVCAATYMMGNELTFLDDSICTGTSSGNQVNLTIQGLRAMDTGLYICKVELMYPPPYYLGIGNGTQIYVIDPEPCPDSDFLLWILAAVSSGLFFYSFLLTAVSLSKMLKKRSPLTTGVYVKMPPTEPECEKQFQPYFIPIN
Description: (§1) The affinities of the antibodies were also assessed against human and mouse CTLA4 transiently expressed on the surface of HEK293F cells (FIG. 2). Briefly, HEK293F cells were transfected with a plasmid expressing full-length human, monkey or mouse CTLA4 from a bicistronic IRES vector also encoding EGFP, and EGFP expression was used to identify the transfected cells. After 48 hours, the mammalian cell suspension (2×10⁵/well) was transferred to an Eppendorf tube, centrifuged, the supernatant was discarded, the cells were resuspended with 1 mL PBSA (to a density is 4×10⁶ cells/mL), and added to a 96 well plate. […] The cells were then washed once prior to analysis by flow cytometry (Beckman® CytoFlex).

[2] = target: T2, full-length mouse CTLA4 on the cell surface (HEK293F transfectants; also activated mouse T cells) (mouse, UniProt P09793 36-223); experiment: flow cytometry on HEK293F cells transiently expressing full-length mouse CTLA4; Alexa Fluor 647 anti-human Fc
T2 construct: whole, on cells; also called mouse cell-surface exposed mouse CTLA4
Description: as §1

[3] = target: T3, recombinant human CTLA4 fused with human Fc and His tag (human, UniProt P16410 37-162, limits assumed, biotinylated where used in solution); experiment: competition ELISA: plate-bound human CTLA4-Fc-His, biotinylated human CD80 as the blocked ligand, HRP-neutravidin
T3 construct: also called biotinylated human CTLA4 fused with human FC and His tag; recombinant human CTLA4 proteins; not shown: human Fc and His tag
T3 sequence (looked up): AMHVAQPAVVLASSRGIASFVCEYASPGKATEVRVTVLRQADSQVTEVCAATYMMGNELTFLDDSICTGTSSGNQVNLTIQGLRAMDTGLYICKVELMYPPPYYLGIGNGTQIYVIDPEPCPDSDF
Description: Plates were blocked with PBS supplemented with 2% (w/v) skim milk at 37° C. for 1 hour. […] Plates were washed four times, and 100 μL HRP-neutravidin (1:1000) was added to each well and incubated at 37° C. for 1 hour. Plates were washed as previously described, and 50 μL TMB substrate solution was added and incubated at room temperature for 5 minutes before the reaction was stopped by 50 μL sulfate acid (2M).

[4] = target: T4, recombinant human CTLA4-Fc (Sino Biological, 11159-H03H) (human, UniProt P16410 37-162); experiment: ELISA, captured Fab
T4 construct: bought; whole entry named; Biotinylated in the yeast display assays; also called human CTLA4 fused with human FC fragment; biotinylated CTLA4-Fc; not shown: human Fc fragment
T4 sequence (looked up): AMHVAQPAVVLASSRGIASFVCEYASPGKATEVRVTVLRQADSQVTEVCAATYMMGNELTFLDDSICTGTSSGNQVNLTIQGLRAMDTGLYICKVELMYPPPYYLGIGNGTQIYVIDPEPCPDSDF

[5] = target: T5, mouse CTLA4 antigen fused with human FC fragment (mouse, UniProt P09793 36-162, limits assumed); experiment: ELISA, captured Fab
T5 construct: not shown: human Fc fragment

[6] = target: T6, cynomolgus monkey CTLA4 antigen fused with human FC fragment (cynomolgus monkey, UniProt G7PL88 36-161, fused to a human Fc fragment that is not in the letters); experiment: ELISA, captured Fab
T6 sequence: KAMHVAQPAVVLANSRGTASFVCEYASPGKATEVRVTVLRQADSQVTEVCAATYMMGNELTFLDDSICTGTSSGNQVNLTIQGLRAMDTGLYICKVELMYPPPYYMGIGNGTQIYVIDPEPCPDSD

[7] = target: T7, canine CTLA4 fused with His tag (canine, UniProt Q9XSI1 36-162, limits assumed); experiment: ELISA, coated canine CTLA4-His
T7 construct: soluble protein; also called dog CTLA4; not shown: His tag
T7 sequence (looked up): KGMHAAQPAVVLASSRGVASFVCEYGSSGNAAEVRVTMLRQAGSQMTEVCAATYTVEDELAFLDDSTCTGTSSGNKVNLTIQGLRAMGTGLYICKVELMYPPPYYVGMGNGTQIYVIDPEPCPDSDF
Description: (§2) The ability of certain IgG antibodies to bind to soluble human (FIG. 1A, Table 5A) or canine (FIG. 1B, Table 5B) CTLA4 was next tested. 1 μg/mL human CTLA4 fused with human FC fragment, or canine CTLA4 fused with His tag, were prepared and used to coat an ELISA plate at 2-8° C. overnight. After blocking, 100 μL serial diluted IgG antibodies were added and incubated at 37° C. for 1 hour. Plates were washed for four times and then incubated with HRP-anti human IgG (Fab specific) (1:6000 dilution) at 37° C. for 1 hour. Plates were washed again four times and incubated with TMB substrate for 15 minutes at room temperature. […] The data was analyzed by Graphpad Prism 6 with nonlinear fitting.

[8] = target: T4, recombinant human CTLA4-Fc (Sino …); experiment: ELISA, coated human CTLA4-Fc
Description: as §2

[9] = target: T8, human CD80 (recombinant) (human, UniProt P33681 35-242, limits assumed, biotinylated where used in solution); experiment: flow cytometry on yeast displaying CTLA4; Normalized FACS Bound, human WT = 1
T8 construct: also called biotinylated CD80
T8 sequence (looked up): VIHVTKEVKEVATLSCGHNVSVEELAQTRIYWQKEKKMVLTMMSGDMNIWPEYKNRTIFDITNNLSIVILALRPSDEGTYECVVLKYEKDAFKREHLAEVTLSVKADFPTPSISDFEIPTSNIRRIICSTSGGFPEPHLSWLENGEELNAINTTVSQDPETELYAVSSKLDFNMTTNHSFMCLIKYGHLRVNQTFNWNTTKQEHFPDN

[10] = target: T9, human CD86 (epitope mapping reagent) (human, UniProt P42081 24-247, limits assumed); experiment: as above
T9 sequence (looked up): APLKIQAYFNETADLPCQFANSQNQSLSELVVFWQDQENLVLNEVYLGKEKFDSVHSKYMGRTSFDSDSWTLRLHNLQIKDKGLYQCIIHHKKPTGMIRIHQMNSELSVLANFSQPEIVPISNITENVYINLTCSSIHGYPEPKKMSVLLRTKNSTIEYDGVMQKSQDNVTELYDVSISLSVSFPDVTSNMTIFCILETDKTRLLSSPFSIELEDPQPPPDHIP

[11] = target: T10, mouse CD86 (mouse, UniProt P42082 24-244, limits assumed); experiment: as above
T10 sequence (looked up): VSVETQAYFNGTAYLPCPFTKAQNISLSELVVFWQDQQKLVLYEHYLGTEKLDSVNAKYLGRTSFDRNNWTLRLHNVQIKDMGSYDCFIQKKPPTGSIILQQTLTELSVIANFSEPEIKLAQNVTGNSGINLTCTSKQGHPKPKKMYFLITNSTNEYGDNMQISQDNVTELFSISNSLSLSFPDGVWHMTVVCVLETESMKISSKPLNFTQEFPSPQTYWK

[12] = target: T4, recombinant human CTLA4-Fc (Sino …); experiment: ELISA, coated human CTLA4-Fc (as Example 8)
Description: (§3) Plates were blocked with PBS supplemented with 3% non-fat milk at 37° C. for 1 hour. After washing, 100 μL of 3-fold serial dilutions of antibodies were added to each well. After incubation at 37° C. for 1 hour, plates were washed four times, and […] conjugated anti-human IgG (Fab specific) (1:6000 dilution) was added to each well. Plates were incubated at 37° C. for 1 hour, washed four times, and then 50 μL TMB substrate solution was added to each well, and the plate was incubated at room temperature. […] The EC₅₀ was evaluated by fitting the ELISA data using the asymmetrical sigmoidal (five-parameter logistic equation) model of GraphPad Prism 6 software.

[13] = target: T4, recombinant human CTLA4-Fc (Sino …); experiment: ELISA, coated human CTLA4-Fc (as Example 8); remark: listed apart in the source
Description: as §3

B1: TY21588 (antibody, V domains shown)
VH: EVQLVESGGGLVQPGGSLRLSCAASGYSISSGYHWDWIRQAPGKGLEWVSGISGYGGSTYYADSVKGRFTISRDNSKNTLYLQLNSLRAEDTAVYYCARHSYYGSGNFDYWGQGTLVTVSS
VL: DIQLTQSPSSLSASVGDRVTITCRASESVDFFGKSFLHWYQQKPGKAPKLLIYDASNLETGVPSRFSGSGSGTDFTLTISSLQPEDFATYYCQQSYSWPPTFGQGTKVEIKR
Does B1 bind [1]?
Result: binds

Does B1 bind [2]?
Result: binds

Does B1 bind [3]?
Result: binds

B2: B15732 (Fab, V domains shown)
VH: EVQLVESGGGLVQPGGSLRLSCAASGYSISSGYHWDWIRQAPGKGLEWVSGISGYGGSTYYADSVKGRFTISRDNSKNTLYLQLNSLRAEDTAVYYCARHSYYGSGNFDYWGQGTLVTVSS
VL: DIQLTQSPSSLSASVGDRVTITCRASESVDFFGKSFLHWYQQKPGKAPKLLIYDASNLETGVPSRFSGSGSGTDFTLTISSLQPEDFATYYCQQSYSWPPTFGQGTKVEIKR
notes: Fab hit from E. coli
Does B2 bind [4]?
Result: binds

Does B2 bind [5]?
Result: binds

Does B2 bind [6]?
Result: binds

B3: TY21591 (antibody, V domains shown)
VH: EVQLVESGGGLVQPGGSLRLSCAASGFSLSTGGVAVSWIRQAPGKGLEWIGEIYHSGSTYYSPSLKSRVTISRDNSKNTLYLQLNSLRAEDTAVYYCARRIATATYFDYWGQGTLVTVSS
VL: DIQLTQSPSSLSASVGDRVTITCRASQTVFSRYLAWYQQKPGKAPKLLIYDASNRATGIPSRFSGSGSGTDFTLTISSLQPEDFATYYCQQSYYWPPWTFGQGTKVEIK
How did the LogEC50 [7] turn out when B3 was run?
Its LogEC50 is -9.15 log M.

What about the LogEC50 [8] of the same binder?
The LogEC50 was -9.08 log M.

B4: human CTLA4 mutant YLGIG105FVGMG displayed on yeast (receptor)
chain: KAMHVAQPAVVLASSRGIASFVCEYASPGKATEVRVTVLRQADSQVTEVCAATYMMGNELTFLDDSICTGTSSGNQVNLTIQGLRAMDTGLYICKVELMYPPPYFVGMGNGTQIYVIDPE
notes: also called G strand changed to mouse
Does B4 bind [9]?
Result: binds

Does B4 bind [10]?
Result: binds

Does B4 bind [11]?
Result: binds

B5: TY22402 (peptide as listed in Table 26) (antibody, V domains shown)
VH: EVQLVESGGGLVQPGGSLRLSCAASGYSISSGYHWSWIRQAPGKGLEWLARIDWDDDKYYSTSLKSRLTISRDNSKNTLYLQLNSLRAEDTAVYYCARSYVYFDYWGQGTLVTVSS
VL: EVGSYIVHHSDCDAFYPYCDSSGRSAGGGGTPLGLAGSGGSDIQLTQSPSSLSASVGDRVTITCRASQSVRGRFLAWYQQKPGKAPKLLIYDASNRATGIPSRFSGSGSGTDFTLTISSLQPEDFATYYCQQSSSWPPTFGQGTKVEIKR
notes: kept apart from m66
What does the source list for B5?
EC50 [12]: 116 nM; EC50 [13]: 54 nM

B6: TY21687 (antibody, V domains shown)
VH: EVQLVESGGGLVQPGGSLRLSCAASGFTFSGYAIHWVRQAPGKGLEWIGIISPSGGGTKYAQKFQGRVTISRDNSKNTLYLQLNSLRAEDTAVYYCARHPFAYWGQGTLVTVSS
VL: DIQLTQSPSSLSASVGDRVTITCRASQSVDFYGISFLDWYQQKPGKAPKLLIYDASNRATGIPSRFSGSGSGTDFTLTISSLQPEDFATYYCQQYVSSPPEYTFGQGTKVEIK
How did the LogEC50 [7] turn out when B6 was run?
The LogEC50 was -9.13 log M.

And the LogEC50 [8]?
The LogEC50 was -9.49 log M.

What about the “IC50 (read off the curve)” value [3] of the same binder?
Its value is roughly 40 nM.

B7: TY21585 (antibody, V domains shown)
VH: EVQLVESGGGLVQPGGSLRLSCAASGFTFSDYAIHWVRQAPGKGLEWIGIISPSSGSTNYAQKFQGRVTISRDNSKNTLYLQLNSLRAEDTAVYYCARDIHSGSSGYYYGFDVWGQGTLVTVSS
VL: DIQLTQSPSSLSASVGDRVTITCRASESVDFFGISFLAWYQQKPGKAPKLLIYDASNRATGIPSRFSGSGSGTDFTLTISSLQPEDFATYYCQHYTSSPPVYTFGQGTKVEIK
With B7 as the binder, how does the LogEC50 [7] read?
Its LogEC50 is -8.22 log M.

And the LogEC50 [8]?
The LogEC50 was -9.26 log M.

What about the “IC50 (read off the curve)” value [3] of the same binder?
Its value is roughly 20 nM.
